Target: T1, 6HisCj1509 (Campylobacter jejuni 81116 (NCTC11828)?, UniProt Q0P820 1-295)
T1 sequence: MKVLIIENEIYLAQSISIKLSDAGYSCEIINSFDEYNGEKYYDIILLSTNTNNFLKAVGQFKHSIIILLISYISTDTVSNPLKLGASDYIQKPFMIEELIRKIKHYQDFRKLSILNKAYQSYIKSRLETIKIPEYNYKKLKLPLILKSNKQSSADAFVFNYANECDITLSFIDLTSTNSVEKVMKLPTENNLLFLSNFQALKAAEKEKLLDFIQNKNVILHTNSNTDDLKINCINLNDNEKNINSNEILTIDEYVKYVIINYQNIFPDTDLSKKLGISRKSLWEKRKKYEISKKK
Assay: EMSA; higher affinity than boxes 1 and 3; EMSA: room temperature, 15 min, up to 30 nM DnaA or 400 nM Cj1509, 4% PAGE in 1x TBE; box probes 0.4 uM; binding buffer not given (as in Jaworski 2016); DnaA with 5 mM ATP (footprinting) or 3 mM ATP (EM)
Settings: protein: recombinant; tags: N-terminal 6xHis (pET28a); chain copies: 2; label: FAM 5' on E7; blunt; three strands, nick between E7 and E10, E11 complementary to E7+E10

B1: Cj1509 box 2 probe (E7-E10-E11) (dsDNA)
DNA 1: GTGCCCTGGTCTGG
DNA 2: TTTGAAGAATGTTACAATTTCAACA
DNA 3: TGTTGAAATTGTAACATTCTTCAAACCAGACCAGGGCAC
- binding result: binds

Source: paper PMC6052347, “Structure and Function of the Campylobacter jejuni Chromosome Replication Origin”
